Data on two molecules can be found in US20250277045A1 (KEYMED BIOSCIENCES, published 2025).

The target in experiment [1] is T1, human BCMA on cells (CHO-hBCMA clone 2C2; NCI-H929; RPMI-8226) (human, UniProt Q02223 1-184).
T1 construct: whole, on cells; also called Human BCMA-CHO; CHO-hBCMA-2C2
T1 sequence (looked up): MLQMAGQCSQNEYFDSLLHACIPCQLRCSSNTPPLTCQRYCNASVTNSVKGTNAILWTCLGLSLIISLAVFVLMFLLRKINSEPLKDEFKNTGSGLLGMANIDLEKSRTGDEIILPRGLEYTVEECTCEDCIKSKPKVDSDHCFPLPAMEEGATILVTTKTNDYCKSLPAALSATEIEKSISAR
Briefly: flow cytometry, RPMI-8226 cells. How it is done: (§1) The primary antibody was washed off, 50 μL/well Alexa Fluro647 labeled goat anti-human IgG Fc (1:300 dilution) was added, incubated on ice for 20 min, 50 μL/well PI was added after washing once, incubated for 5 min, and flow cytometer was used to perform detection.

For experiment [2], the target named is T2, human CD3 on T cells (Jurkat cells; human peripheral blood CD4+ and CD8+ T cells) (human, UniProt P07766 23-207).
T2 construct: whole, on cells; also called CD3ε
The experiment in a line: flow cytometry, peripheral blood CD4+ T cells (PBMC). How it is done: (§2) Fresh human or cynomolgus monkey peripheral blood was taken and PBMC was isolated by Ficoll-Paque Plu (GE, 17-1440-03). […] 50 μL/well Alexa Fluro647 labeled goat anti-human IgG Fc (1:300 dilution) was added to the secondary antibody, ice bath for 20 min, 50 μL/well PI was added after washing once, incubated for 5 min, and flow cytometer (BD C6) was used to perform detection.
On the technique in general: A flow cytometer gives signals particle by particle.

Experiment [3] concerns the target T1, human BCMA on cells (CHO-hBCMA clone …). The experiment in a line: flow cytometry, NCI-H929 cells. How it is done: as §1
For experiment [4], the target named is T3, cynomolgus monkey BCMA on CHO cells (CHO-cynoBCMA clone 1A2) (cynomolgus monkey, UniProt A0A2K5UD97 1-183).
T3 construct: whole, on cells; also called Cynomolgus monkey BCMA-CHO; CHO-cynoBCMA-1A2
The experiment in a line: flow cytometry, CHO-cynomolgus monkey BCMA cells. How it is done:
(§3) 50 μL/well Alexa Fluro647 labeled goat anti-human IgG Fc (1:300 dilution) was added to the secondary antibody, incubated on ice for 20 min, 50 μL/well PI solution (1:300) was added after washing once, incubated for 5 min, and flow cytometer was used to perform detection.

The target in experiment [5] is T4, cynomolgus monkey CD3εγ-Fc heterodimer (cynomolgus monkey).
T4 chain 1: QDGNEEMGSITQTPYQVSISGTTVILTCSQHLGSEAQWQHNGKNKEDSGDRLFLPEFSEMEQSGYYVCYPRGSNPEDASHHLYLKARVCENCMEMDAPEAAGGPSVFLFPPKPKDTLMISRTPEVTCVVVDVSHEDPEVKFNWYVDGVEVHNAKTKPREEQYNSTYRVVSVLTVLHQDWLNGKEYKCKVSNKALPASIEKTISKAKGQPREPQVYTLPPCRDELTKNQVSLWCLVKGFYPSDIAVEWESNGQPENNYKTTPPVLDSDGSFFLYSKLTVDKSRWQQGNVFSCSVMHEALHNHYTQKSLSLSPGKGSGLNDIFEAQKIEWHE
T4 chain 2: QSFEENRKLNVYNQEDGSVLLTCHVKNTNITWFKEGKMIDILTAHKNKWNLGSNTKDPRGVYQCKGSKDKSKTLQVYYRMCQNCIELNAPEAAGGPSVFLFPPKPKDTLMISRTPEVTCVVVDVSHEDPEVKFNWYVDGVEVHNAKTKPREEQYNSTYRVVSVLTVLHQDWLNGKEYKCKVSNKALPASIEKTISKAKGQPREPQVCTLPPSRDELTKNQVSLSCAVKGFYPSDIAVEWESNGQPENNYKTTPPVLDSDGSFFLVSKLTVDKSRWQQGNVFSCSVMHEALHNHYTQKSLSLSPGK
The experiment in a line: SPR (Biacore T200), antigen amine-coupled to CM5, antibody as analyte, 1:1 model. How it is done:
(§4) 10 μg/mL human or cynomolgus monkey BCMA or CD3εγ recombinant antigen was bound to a CM5 chip (GE healthcare) by amino coupling, controlling the amount of antigen bound to approximately 200 RU. After the baseline plateau, gradient-diluted antibodies (from 10 μg/mL, 2-fold dilutions for 7 gradients) flowed through the chip at a flow rate of 30 μL/min for a binding time of 350 seconds and a dissociation time of 600 seconds. Kinetic constants were fitted using Biacore T200 evaluation software with a 1:1 binding model.
(In general: In SPR one partner is held on a chip, and binding of the other changes the refractive index at the surface.)

Experiment [6] concerns the target T5, human BCMA recombinant antigen (human, UniProt Q02223 1-53).
T5 construct: range 1-53; also called human BCMA recombinant protein
T5 sequence (looked up): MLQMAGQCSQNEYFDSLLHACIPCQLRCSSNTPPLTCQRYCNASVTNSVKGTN
The description is as above. How it is done: as §4

In experiment [7] the target is T6, cynomolgus monkey BCMA recombinant antigen (cynomolgus monkey, UniProt A0A2K5UD97 1-51).
T6 construct: range 1-52
The experiment is described as above. How it is done: as §4

Experiment [8] has as its target T2, human CD3 on T cells (Jurkat cells; …). Briefly: flow cytometry, Jurkat cells. How it is done: Jurkat cells in the logarithmic growth phase were added with 200 μg/mL murine IgG (Jackson ImmunoResearch, 115-005-03) and incubated on ice for 30 min. […] 50 μL/well Alexa Fluro647 labeled goat anti-human IgG Fc (1:300 dilution) was added to the secondary antibody, incubated on ice for 20 min, 50 μL/well PI was added after washing once, incubated for 5 min, and flow cytometer (BD C6) was used to perform detection.

The target is the same in experiment [9]. The experiment in a line: flow cytometry, peripheral blood CD8+ T cells (PBMC). How it is done: as §2
Experiment [10] has as its target T5, human BCMA recombinant antigen. Briefly: competition ELISA, coated human BCMA, antibody varied, then biotinylated human APRIL at 240 ng/mL, SA-HRP. How it is done: 1 μg/mL human BCMA recombinant antigen was prepared with pH 9.6 carbonic acid buffer, added to a maxisorp96-well plate, and coated overnight at 4° C. After blocking with 5% skim milk/PBS for 1 h at room temperature, 50 μL antibody per well (4-fold dilution from 30 μg/mL for a total of 10 gradients) was added and incubated for 30 min at room temperature. […] After 3 washes with 0.05% PBST (PBS+0.05% Tween-20) and PBS respectively, 100 μL of SA-HRP (diluted 1:8000) was added to each well and incubated at room temperature for 45 min. Washing 3 times with 0.05% PBST and PBS respectively, 100 μL TMB color-developing solution was added into each well, after 10 min, 50 μL concentrated sulfuric acid was added into each well to stop the reaction, read OD450 nm by a microplate reader, and perform three-parameter fitting curve using Graphpad software.
For orientation: ELISA stands for enzyme-linked immunosorbent assay.

In experiment [11] the target is T1, human BCMA on cells (CHO-hBCMA clone …). Briefly: flow cytometry, CHO-human BCMA cells. How it is done: as §3

T2 sequence (P07766 23-207): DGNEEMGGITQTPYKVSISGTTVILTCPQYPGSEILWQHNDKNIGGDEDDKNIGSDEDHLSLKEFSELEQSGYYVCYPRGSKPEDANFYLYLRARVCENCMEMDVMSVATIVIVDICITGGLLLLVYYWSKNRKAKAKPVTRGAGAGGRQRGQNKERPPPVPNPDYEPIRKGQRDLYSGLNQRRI
T3 sequence (A0A2K5UD97 entry or part of it): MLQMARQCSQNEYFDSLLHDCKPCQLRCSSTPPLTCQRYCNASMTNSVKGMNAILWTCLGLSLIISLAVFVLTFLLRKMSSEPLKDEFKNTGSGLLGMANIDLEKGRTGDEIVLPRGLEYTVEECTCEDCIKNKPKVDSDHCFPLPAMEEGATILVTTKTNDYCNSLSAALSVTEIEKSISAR
T6 sequence (A0A2K5UD97 entry or part of it): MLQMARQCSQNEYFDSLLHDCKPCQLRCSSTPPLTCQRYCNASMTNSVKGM

B1: BCMA×CD3 κλ003 (bispecific antibody, human IgG4 S228P, kappa, lambda)
light 1: DIVLTQSPASLAVSPGQRATITCRASKSVSTSGYSYMHWYQKKPGQPPKLLIYLASNLESGVPARFSGSGSGTDFTLTINPVEAEDTANYYCQHSRELPWTFGQGTKVEIKRTVAAPSVFIFPPSDEQLKSGTASVVCLLNNFYPREAKVQWKVDNALQSGNSQESVTEQDSKDSTYSLSSTLTLSKADYEKHKVYACEVTHQGLSSPVTKSFNRGEC
heavy 1: QVQLVQSGSELKKPGASVKVSCKASGYIFTNFGMNWVREAPGQGLEWMGWINTYTGEQIYADGFTGRFVFSLDTSASTAYLQISSLKAEDTAVYFCARGEIYYGYDVGFVYWGQGTLVTVSSASTKGPSVFPLAPCSRSTSESTAALGCLVKDYFPEPVTVSWNSGALTSGVHTFPAVLQSSGLYSLSSVVTVPSSSLGTKTYTCNVDHKPSNTKVDKRVESKYGPPCPPCPAPEFEGGPSVFLFPPKPKDTLMISRTPEVTCVVVDVSQEDPEVQFNWYVDGVEVHNAKTKPREEQFNSTYRVVSVLTVLHQDWLNGKEYKCKVSNKGLASSIEKTISKAKGQPREPQVCTLPPSQEEMTKNQVSLSCAVKGFYPSDIAVEWESNGQPENNYKTTPPVLDSDGSFFLVSKLTVDKSRWQEGNVFSCSVMHEALHNHYTQKSLSLSLGK
light 2: QAVVTQEPSLTVSPGGTVTLTCRSSTGAVTTSNYANWVQEKPGQAPRGLIGGTNKRAPWTPARFSGSLLGGKAALTITGAQAEDEAEYYCVLWYSNLWVFGGGTKLTVLGQPKAAPSVTLFPPSSEELQANKATLVCLISDFYPGAVTVAWKADSSPVKAGVETTTPSKQSNNKYAASSYLSLTPEQWKSHRSYSCQVTHEGSTVEKTVAPTECS
heavy 2: EVQLVESGGGLVQPGGSLRLSCAASGFTFNTYAMNWVRKAPGKGLEWVGRIRSKYNNYATYYADSVKDRFTISRDDSKNSLYLQMNSLKTEDTAVYYCVRHGNFGNSYVSWFAYWGQGTLVTVSSASTKGPSVFPLAPCSRSTSESTAALGCLVKDYFPEPVTVSWNSGALTSGVHTFPAVLQSSGLYSLSSVVTVPSSSLGTKTYTCNVDHKPSNTKVDKRVESKYGPPCPPCPAPEFEGGPSVFLFPPKPKDTLMISRTPEVTCVVVDVSQEDPEVQFNWYVDGVEVHNAKTKPREEQFNSTYRVVSVLTVLHQDWLNGKEYKCKVSNKGLASSIEKTISKAKGQPREPQVYTLPPCQEEMTKNQVSLWCLVKGFYPSDIAVEWESNGQPENNYKTTPPVLDSDGSFFLYSKLTVDKSRWQEGNVFSCSVMHEALHNHYTQKSLSLSLGK
As for B1, the concentration for a half-maximal effect (EC50) (as a rule, the midpoint of the concentration-response curve) came out at 34 nM in experiment [1]; 87 nM in [2]; 34 nM in experiment [3]; 3 nM in experiment [4]; 66 nM in [8]; 97 nM in [9]. In [11], the EC50 came out at 16 nM. Moreover, the Kd (commonly the free concentration of one partner at which half of the binding sites on the other are occupied at equilibrium, for simple one-to-one binding) worked out at 43 nM in experiment [5], 1.3 nM in [6] and 0.16 nM in experiment [7]. For the same molecule, the “IC50 (read off the curve)” value in experiment [10] is ~8 nM.

B2: BCMA×CD3 κλ004 (bispecific antibody, human IgG4 S228P, kappa, lambda)
light 1: DIVLTQSPASLAVSPGQRATITCRASKSVTTSGYSYIHWYQKKPGQPPKLLIYLASDLEAGVPARFSGSGSGTDFTLTINPVEAEDTANYYCQHSRELPWTFGQGTKVEIKRTVAAPSVFIFPPSDEQLKSGTASVVCLLNNFYPREAKVQWKVDNALQSGNSQESVTEQDSKDSTYSLSSTLTLSKADYEKHKVYACEVTHQGLSSPVTKSFNRGEC
heavy 1: QVQLVQSGSELKKPGASVKVSCKASGYIFTNFGMNWVREAPGQGLEWMGWINTYTGEQIYADGFTGRFVFSLDTSASTAYLQISSLKAEDTAVYFCARGEIYYGYDVGFVYWGQGTLVTVSSASTKGPSVFPLAPCSRSTSESTAALGCLVKDYFPEPVTVSWNSGALTSGVHTFPAVLQSSGLYSLSSVVTVPSSSLGTKTYTCNVDHKPSNTKVDKRVESKYGPPCPPCPAPEFEGGPSVFLFPPKPKDTLMISRTPEVTCVVVDVSQEDPEVQFNWYVDGVEVHNAKTKPREEQFNSTYRVVSVLTVLHQDWLNGKEYKCKVSNKGLASSIEKTISKAKGQPREPQVCTLPPSQEEMTKNQVSLSCAVKGFYPSDIAVEWESNGQPENNYKTTPPVLDSDGSFFLVSKLTVDKSRWQEGNVFSCSVMHEALHNHYTQKSLSLSLGK
light 2: QAVVTQEPSLTVSPGGTVTLTCRSSTGAVTTSNYANWVQEKPGQAPRGLIGGTNKRAPWTPARFSGSLLGGKAALTITGAQAEDEAEYYCVLWYSNLWVFGGGTKLTVLGQPKAAPSVTLFPPSSEELQANKATLVCLISDFYPGAVTVAWKADSSPVKAGVETTTPSKQSNNKYAASSYLSLTPEQWKSHRSYSCQVTHEGSTVEKTVAPTECS
heavy 2: EVQLVESGGGLVQPGGSLRLSCAASGFTFNTYAMNWVRKAPGKGLEWVGRIRSKYNNYATYYADSVKDRFTISRDDSKNSLYLQMNSLKTEDTAVYYCVRHGNFGNSYVSWFAYWGQGTLVTVSSASTKGPSVFPLAPCSRSTSESTAALGCLVKDYFPEPVTVSWNSGALTSGVHTFPAVLQSSGLYSLSSVVTVPSSSLGTKTYTCNVDHKPSNTKVDKRVESKYGPPCPPCPAPEFEGGPSVFLFPPKPKDTLMISRTPEVTCVVVDVSQEDPEVQFNWYVDGVEVHNAKTKPREEQFNSTYRVVSVLTVLHQDWLNGKEYKCKVSNKGLASSIEKTISKAKGQPREPQVYTLPPCQEEMTKNQVSLWCLVKGFYPSDIAVEWESNGQPENNYKTTPPVLDSDGSFFLYSKLTVDKSRWQEGNVFSCSVMHEALHNHYTQKSLSLSLGK
Take B2: the EC50 turned out to be 39 nM in experiment [1]; 77 nM in experiment [2]; 36 nM in experiment [3]; 3 nM in experiment [4]; 61 nM in [8]; 84 nM in experiment [9]. In experiment [11], the midpoint of the response, the EC50, lay at 22 nM. Also, the dissociation constant (Kd) is 43 nM in [5], 1 nM in experiment [6] and 0.12 nM in experiment [7]. The “IC50 (read off the curve)” value in experiment [10] is ~5 nM.
